Assay results taken from patent US20130243746.

Biological target: recombinant human acid alpha glucosidase (rhGAA), 110 kDa precursor

B1: recombinant Aspergillus oryzae alkaline protease expressed in Yarrowia lipolytica (strains OXYY2184 and OXYY2122), mature form with linker and His tag (protein)
chain: GLTTQKSAPWGLGSISHKGQQSTDYIYDTSAGEGTYAYVVDSGVNVDHEEFEGRASKAYNAAGGQHVDSIGHGTHVSGTIAGKTYGIAKKASILSVKVFQGESSSTSVILDGFNWAANDIVSKKRTSKAAINMSLGGGYSKAFNDAVENAFEQGVLSVVAAGNENSDAGQTSPASAPDAITVAAIQKSNNRASFSNFGKVVDVFAPGQDILSAWIGSSSATNTISGTSMATPHIVGLSLYLAALENLDGPAAVTKRIKELATKDVVKDVKGSPNLLAYNGNASGGGHHHHHHHHHH
- processing of the 110 kDa rhGAA precursor in culture supernatant of the co-expressing strain OXYY2122 (SDS-PAGE and immunoblot): This processing was complete; no 110 kDa form was detected
- proteolysis of rhGAA to the 95 kDa form (weight:weight ratio 200:1 total protein:protease, 16 h at 30 C; SDS-PAGE): resulted in a full proteolysis to the 95 kDa product
